Data on 53 sequences can be found in the supplement of paper PMC10567573.

The data set can be described thus: protein stability index of a GFP-peptide fusion (GPS, HEK-293T) (PSI 1-6); higher = more stable.
The mark [1] stands for this setting: treatment: DMSO, c terminus: a fixed tail appended.
Setting [2] is: treatment: MLN4924 1 uM, 8 h, c terminus: a fixed tail appended.
[3] abbreviates: treatment: DMSO, c terminus: native.
[4] abbreviates: treatment: MLN4924 1 uM, 8 h, c terminus: native.

± gives the standard deviation.
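Also: 24-mer peptide tiles fused after GFP, lentivirally expressed, FACS-sorted into six equal bins by GFP/DsRed ratio, decoded by Illumina sequencing, PSI is the read-weighted mean bin number.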

Turning to VLMVGPNFRVGKKIGCGNFGELRL [CSNK1G1], the protein stability index is, setting by setting: under setting [1], 2.42 ± 0.053; under setting [2], 2.69 ± 0.61.
Regarding VLRCQLGDRLNVEVDAAPPVDLNK [KRT36], the protein stability index reads like this: under setting [1], 4.06 ± 0.11; under setting [2], 4.14 ± 0.25.
In the case of VLSEGSPLTEQEESSPSHDRSRTV [SRPK2], the protein stability index runs as follows: under setting [1], 5.35 ± 0.33; under setting [2], 5.32 ± 0.25.
The like results for VMEIQKQIEKKEKKLHKIQNKAQR [TAF7L] were, in that order, 4.13 ± 0.088 and 4.36 ± 0.21.
On to VNARQKQGIYEEYEDIRRENPVGT [PTPN9], for which the protein stability index runs as follows: under setting [1], 4.83 ± 0.37; under setting [2], 4.96 ± 0.29.
With VNPQDGTNTLTRIAENGVSERDSE [EHMT1], the protein stability index by setting is: under setting [1], 5.56 ± 0.22; under setting [2], 5.51 ± 0.11.
For the sequence VNSTLKELRRLFLVQDLVDSLKFA [RTN1], the protein stability index amounted to 2.44 ± 0.27 under setting [1] and 2.4 ± 0.23 under setting [2].
The like results for VPIKPPCIPNGKENFSGGTSLWQN [CAMK2D] were, in that order, 2.65 ± 0.12 and 2.71 ± 0.57.
For the sequence VPQLVTGRCATRAFHRKSHSLDLN [RNF180], the protein stability index reads like this: under setting [1], 2.35 ± 0.2; under setting [2], 2.6 ± 0.41.
In the case of VQLRFCGRQPCGRFLRAYREGALR [TRADD], the protein stability index is, setting by setting: under setting [1], 2.61 ± 0.53; under setting [2], 2.29 ± 0.65.
Consider VQRHLYLQDVIMQVADVPEKPRVP [ZNF511], for which the protein stability index was 2.8 ± 0.2 under setting [1] and 2.9 ± 0.29 under setting [2].
Turning to VQVLTMGNDTSPSEGTNLNAPNSL [HNF4A], the protein stability index reads like this: under setting [1], 3.97 ± 0.17; under setting [2], 4.02 ± 0.18.
The like results for VRAKGSQSGRHLQTHSNTIVVSLQ [STX5] were, in that order, 2.48 ± 0.24 and 2.64 ± 0.075.
For VRSRLEEAGIKVHDVRLNGSAAGH [TENT5C], in that order: 2.85 ± 0.43 and 3.21 ± 0.64.
The sequence VSGLLVGYELGIISGALLQIKTLL [SLC2A12] showed a protein stability index under setting [2] of 2.97 ± 1.2.
For the sequence VSHVFMLLFNVKSPTDIQDSSIIR [RHOBTB3], the protein stability index was 2.81 ± 0.56 under setting [1] and 2.64 ± 0.48 under setting [2].
The like results for VSIMYLVLVLAVQVHAWQLYYSKK [JAGN1] were, in that order, 2.98 ± 0.67 and 3.27 ± 0.16.
The like results for VSTWFANARRRLKKENKMTWAPKN [IRX6] were, in that order, 2.57 ± 0.22 and 2.75 ± 0.13.
With VTDYFFTLVQREEPLRILSKYHRF [CDS2], the protein stability index is 2.45 ± 0.21 under setting [1] and 2.42 ± 0.28 under setting [2].
The sequence VTLAAHFLGLGAPNCLSMGSRCLK [ZBED1] showed a protein stability index under setting [1] of 2.26 ± 0.37 and a protein stability index under setting [2] of 2.19 ± 0.21.
For VTSFDSVVPEKLDDLVPKGKKFLL [ALG2], in that order: 3.32 ± 0.25 and 3.31 ± 0.16.
Take VVEKRLCMYEHGEDTHQSPEPEDE [RSPH3]: the protein stability index is, setting by setting: under setting [1], 5.43 ± 0.43; under setting [2], 5.58 ± 0.23.
For VVETVFFLTSRTRALLRRFPRMLL [ZSWIM9], the protein stability index was found to be 2.89 ± 0.095 under setting [1] and 2.87 ± 0.3 under setting [2].
As for WAVVTMTTVGYGDMKPITVGGKIV [KCNA4], the protein stability index reads like this: under setting [1], 2.84 ± 0.38; under setting [2], 2.72 ± 0.55.
Regarding WDKHACPAYVGPEILSSRASYSGK [TRIB3], the protein stability index by setting is: under setting [1], 3.53 ± 0.096; under setting [2], 3.5 ± 0.24.
In the case of WERVHLIVAGGYDERVLENVEHYQ [ALG2], the protein stability index by setting is: under setting [1], 2.33 ± 0.19; under setting [2], 2.48 ± 0.3.
In the case of WESRTGDQYSYSSLVMGSQTESAL [LCOR], the protein stability index under setting [1] is 3.44 ± 0.27 and the protein stability index under setting [2] amounted to 3.51 ± 0.46.
On to WQSESLPVSLSASQSWHTESLPVS [BCL2L13], for which the protein stability index is, setting by setting: under setting [1], 3.26 ± 0.23; under setting [2], 3.35 ± 0.14.
For the sequence WRITNAKGDVEEVQGPGVVGEFPI [FBXO3], the protein stability index was found to be 3.75 ± 0.34 under setting [1] and 3.84 ± 0.48 under setting [2].
The like results for WTLYKILDSCKQLTLAQGAGEEDP [SMG5] were, in that order, 2.32 ± 0.18 and 2.56 ± 0.28.
Regarding YCSIKCQQEHWHAEHKRTCRRKR [ZMYND11], the protein stability index reads like this: under setting [3], 2.92 ± 0.61; under setting [4], 3.51 ± 0.87.
In turn, YDGMLSDVQSMPKTGILILILSII [MAGEA10] showed a protein stability index under setting [1] of 2.36 ± 0.78 and a protein stability index under setting [2] of 2.12 ± 0.48.
On to YDGRSRLSSVECLDYTADEDGVWY [KLHL12], for which the protein stability index was 3.55 ± 0.4 under setting [1] and 3.76 ± 0.35 under setting [2].
With YEDTNGQPQALLVDGDQSKILISG [TNXB], the protein stability index reads like this: under setting [1], 4.99 ± 0.13; under setting [2], 4.73 ± 0.12.
As for YEKKFDTFIPLEPLPQIPNLPFWV [SPATS1], the protein stability index is, setting by setting: under setting [1], 2.24 ± 0.31; under setting [2], 1.95 ± 0.18.
As to YFSTPQTMDLFLNYSMNMQPEDV [NANOGP8], the protein stability index was 2.34 ± 0.21 under setting [3] and 2.27 ± 0.55 under setting [4].
Turning to YFYPRGGGSGGGAGGAGGGVTEEQ [JUNB], the protein stability index is 5.01 ± 0.3 under setting [1] and 4.89 ± 0.41 under setting [2].
Take YHNSPAYLAYINAKSRAEAALEEE [SMARCE1]: the protein stability index reads like this: under setting [1], 2.53 ± 0.54; under setting [2], 4.01 ± 0.38.
Take YISLLLRAEPYPTSRFGSQCMQPN [NR2F2]: the protein stability index runs as follows: under setting [1], 2.55 ± 0.5; under setting [2], 2.43 ± 0.39.
For the sequence YKIVTAREWRCCPGHSGVSCEEVA [EMID1], the protein stability index runs as follows: under setting [1], 2.49 ± 0.32; under setting [2], 2.39 ± 0.41.
YLPPERIREKSRLFDTKHDVYSFA [RIPK4] returned a protein stability index under setting [1] of 2.62 ± 0.24 and a protein stability index under setting [2] of 2.72 ± 0.25.
For YLYTYDSQITDSEHNSSLVSQQTG [ZNF8], in that order: 3.73 ± 0.2 and 3.71 ± 0.11.
Take YLYYDPDYSFLSLGVYSALREIAF [ATE1]: the protein stability index was found to be 2.92 ± 0.2 under setting [1] and 2.67 ± 0.24 under setting [2].
YMGKGSMTGLALKHMFERSFTQGE [MATN2]: the protein stability index is 2.37 ± 0.23 under setting [1] and 3.07 ± 0.18 under setting [2].
For YNQQQALIDQRYFQVLCSINSIIH [CEP70], in that order: 2.32 ± 0.34 and 2.24 ± 0.23.
Take YPPQMGEEYSQIIYSTKLYRFFKY [BTBD10]: the protein stability index came out at 2.88 ± 0.71 under setting [1] and 2.73 ± 0.83 under setting [2].
YPSYKVREKIETVKYPTYPEAEK [FUT8]: the protein stability index came out at 4.07 ± 0.19 under setting [3] and 4.16 ± 0.57 under setting [4].
On to YRFRMKCHLCVNYIEMQTDPANCD [YJU2B], for which the protein stability index under setting [1] was found to be 2.3 ± 0.31 and the protein stability index under setting [2] came to 2.26 ± 0.17.
The like results for YRWHINFTTFFIDCMAALGLAYDR [SCD] were, in that order, 2.99 ± 0.65 and 2.61 ± 0.64.
The like results for YSAIDRVKSRGKRLALEKVPKVGQ [PI4K2A] were, in that order, 4.04 ± 0.33 and 4.12 ± 0.27.
For YSDRTNIISKPVPQTLIMAYDYAK [FEM1C], in that order: 2.36 ± 0.24 and 2.49 ± 0.41.
Take YSENAPFHLSLFQGWMNLLNMAKK [PLD5]: the protein stability index is, setting by setting: under setting [1], 2.08 ± 0.61; under setting [2], 2.23 ± 0.13.
For YSFGSGGGYGSSFGGVDGLLAGGE [KRT17], in that order: 2.84 ± 0.13 and 2.9 ± 0.098.
